Measurements published in PMC11449360.

Biological target: Recombinant full-length MMTV Gag containing hexa-histidine tag at the C-terminus (Pr77^Gag) (mouse mammary tumor virus (MMTV))
Assay: dynamic light scattering; purified Pr77^Gag-His6 alone in storage buffer (50 mM Tris-HCl pH 8.0, 1 M NaCl); the hydrodynamic radius (about 6.00 nm) from volume and number distributions is read as the oligomer's size

## Recombinant full-length MMTV Gag containing hexa-histidine tag at the C-terminus (Pr77^Gag) (natural protein)
  stoichiometry N: 3
